Results as given in paper PMC3504642.

Tests used:
FcεRIα (Homo sapiens) = FcεRIα (Homo sapiens) (UniProt P12319); details: cited from earlier work
[1] = target: AF488-Fc (C328A/K367C IgE-Fc Cε3-Cε4 protein labeled with Alexa Fluor 488 at residue 367); test: other fluorescence titration

Substance	Kd (FcεRIα (Homo sapiens)) [nM]	Kd [1] [nM]
IgE Fc Fc (Cε2-Cε4) (from UniProt P01854)	< 1	–
soluble FcεRI α-chain ectodomain (from UniProt P12319 26-205) (receptor)	–	22
